Source: US20250326860A1 (ADAGENE PTE, published 2025)
Changes are numbered by the printed parent chain. Numbers in names are those of the source. Values belong to the binder of their own block, whether it stands above or below them.

Key:
[1] = biological target: T1, human CD3 on cells (Jurkat cells, human T cells) (human, UniProt P07766 23-207); assay: cell-based or functional assay
[2] = biological target: T1, human CD3 on cells (Jurkat cells, human …); assay: flow cytometry on Jurkat cells, anti-human IgG AF647 secondary antibody
Method: The ability of the parental huOKT3 anti-CD3 antibody TAC2245 and the activatable huOKT3 anti-CD3 antibody TY23104 to bind Jurkat cells was measured in a dose-dependent binding assay.
The Jurkat cells were thawed, washed and cultured in an incubator. 4×10⁵ Jurkat cells/well were aliquoted into 96-well plate and incubated with parental huOKT3 TAC2245 or activatable huOKT3 for 1 hour at 4° C. After centrifugation and washing, Jurkat cells were further incubated with the secondary antibody anti-human IgG AF647 for 30 minutes at 4° C. After centrifugation and washing, the Jurkat cells labelled with antibodies were re-suspended in 2% FBS DPBS and analyzed by FACS.

[3] = biological target: T1, human CD3 on cells (Jurkat cells, human …); assay: flow cytometry, human CD3+ T cells
From the text: (§1) Human PBMCs were freshly isolated from the blood of healthy donors by density gradient centrifugation using Histopaque-1077 (Sigma). Human CD3+ T cells were further isolated from PBMCs using the Human T Cell Enrichment Kit (Stem Cell Technologies). Monkey PBMCs were isolated from a naïve cynomolgus monkey by density gradient centrifugation using Histopaque-1077 (Sigma). Monkey CD3+ T cells were isolated from PBMCs using the Pan T Cell Isolation Kit Non-Human Primate (Miltenyi Biotec). Purified human or monkey CD3+ T cells were stained with the testing antibodies as the primary antibody and the APC-labelled anti-human-Fc antibody (BioLegend) as the secondary antibody. After washing, the cells were analyzed on the CytoFLEX flow cytometer (Beckman Coulter) and the data was analyzed by FlowJo software.

[4] = biological target: T2, cynomolgus monkey CD3 on T cells (cynomolgus monkey, UniProt Q95LI5 22-198); assay: flow cytometry, monkey CD3+ T cells
T2 construct: whole, on cells
T2 sequence (Q95LI5 22-198): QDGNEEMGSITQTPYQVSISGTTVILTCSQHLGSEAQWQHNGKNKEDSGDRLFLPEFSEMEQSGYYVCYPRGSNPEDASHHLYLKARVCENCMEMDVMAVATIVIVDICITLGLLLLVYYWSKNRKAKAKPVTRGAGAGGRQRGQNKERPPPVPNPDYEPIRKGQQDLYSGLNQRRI
From the text: as §1

[5] = biological target: T1, human CD3 on cells (Jurkat cells, human …); assay: Jurkat cell binding
[6] = biological target: T3, human CD20 on cells (human B cells; Raji, SU-DHL-8, SU-DHL-4, A3KAW, NAMALWA) (human, UniProt P11836 1-297); assay: flow cytometry, SU-DHL-8 cells
T3 construct: whole, on cells
T3 sequence (looked up): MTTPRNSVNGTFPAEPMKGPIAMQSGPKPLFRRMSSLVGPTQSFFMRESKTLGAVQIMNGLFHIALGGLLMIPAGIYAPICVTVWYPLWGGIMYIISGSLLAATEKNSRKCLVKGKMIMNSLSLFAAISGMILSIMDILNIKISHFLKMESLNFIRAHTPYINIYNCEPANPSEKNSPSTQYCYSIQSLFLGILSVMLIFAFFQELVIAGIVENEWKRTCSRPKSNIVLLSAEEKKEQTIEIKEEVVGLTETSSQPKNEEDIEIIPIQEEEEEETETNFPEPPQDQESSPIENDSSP
Method: (§2) Raji, SU-DHL-8, SU-DHL-4, A3KAW and NAMALWA were B-cell lymphoma cell lines with various CD20 expression levels on cell surface. Briefly, the test antibodies were serial diluted and were incubated with the tumor cells on ice. After washing, the cells were subsequently incubated with the APC-labelled anti-human-Fc secondary antibody (BioLegend) on ice. The cells were then washed with PBS prior to analysis by the CytoFLEX flow cytometer (Beckman Coulter). The data was analyzed by FlowJo software.

[7] = biological target: T3, human CD20 on cells (human B cells; …); assay: flow cytometry, human B cells
From the text: (§3) Human and monkey PBMCs were isolated as mentioned above. Human B cells were further isolated from PBMCs using the EasySep™ Human B Cell Isolation Kit (Stem Cell Technologies). Monkey B cells were isolated from PBMCs using the Non-Human B Primate Cell Isolation Kit (Stem Cell Technologies). Purified human or monkey B cells were stained with the testing antibodies as the primary antibody and the APC-labelled anti-human-Fc antibody (BioLegend) as the secondary antibody. After washing, the cells were analyzed on the CytoFLEX flow cytometer (Beckman Coulter) and the data was analyzed by FlowJo software.

[8] = biological target: T3, human CD20 on cells (human B cells; …); assay: flow cytometry, NAMALWA cells
Method: as §2

[9] = biological target: T4, cynomolgus monkey CD20 on B cells (cynomolgus monkey, UniProt M4ZHZ6 1-297); assay: flow cytometry, monkey B cells
T4 construct: whole, on cells
T4 sequence: T3 sequence (looked up) with S25P, F31L, T51A, A157V, K217R, N226S, I227V, T239V
From the text: as §3

[10] = biological target: T3, human CD20 on cells (human B cells; …); assay: flow cytometry, SU-DHL-4 cells
Method: as §2

[11] = biological target: T3, human CD20 on cells (human B cells; …); assay: flow cytometry, A3KAW cells
Method: as §2

[12] = biological target: T3, human CD20 on cells (human B cells; …); assay: flow cytometry, Raji cells
Method: as §2

T1 sequence (P07766 23-207): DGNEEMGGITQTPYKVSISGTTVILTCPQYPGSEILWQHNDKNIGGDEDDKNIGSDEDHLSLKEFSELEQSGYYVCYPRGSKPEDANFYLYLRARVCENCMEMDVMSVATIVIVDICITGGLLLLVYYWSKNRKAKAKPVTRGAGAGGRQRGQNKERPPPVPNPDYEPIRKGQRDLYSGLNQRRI

Jurkat NFAT reporter assay EC50 [1]: 7.9 nM | Masking efficiency (Jurkat NFAT reporter assay) [1]: 419 fold
B1: TY23118 (antibody)
light: EVGSYDADDPDCPADNNHCHYSGRSAGGGGTPLGLAGSGGSQAVVTQEPSLTVSPGGTVTLTCGSSTGAVTTSNYANWVQQKPGQAPRGLIGGTNKRAPGVPARFSGSLLGGKAALTLSGAQPEDEAEYYCALWYSNLWVFGGGTKLTVLRTVAAPSVFIFPPSDEQLKSGTASVVCLLNNFYPREAKVQWKVDNALQSGNSQESVTEQDSKDSTYSLSSTLTLSKADYEKHKVYACEVTHQGLSSPVTKSFNRGEC
heavy: not shown

Jurkat NFAT reporter assay EC50 [1]: 3.6 nM | Masking efficiency (Jurkat NFAT reporter assay) [1]: 191 fold
B2: TY23110 (antibody)
light: B1 light with D6A, A7P, D8H, N16P, N17P, H18S, H20Y, Y21P
heavy: not shown

Jurkat NFAT reporter assay EC50 [1]: 7.7 nM | Masking efficiency (Jurkat NFAT reporter assay) [1]: 409 fold
B3: TY23115 (antibody)
light: B1 light with D6P, A7Y, A14S, D15H, N16D, N17S, H18D, H20D, Y21N
heavy: not shown

EC50 (read off the curve) [2]: ~70 nM
B4: TY23104 (antibody, human IgG4 S228P, kappa)
light: EVGSYAYHDDDCPDDDYDCASSGRSAGGGGTPLGLAGSGGSDIQMTQSPSSLSASVGDRVTITCSASSSVSYMNWYQQTPGKAPKRWIYDTSKLASGVPSRFSGSGSGTDYTFTISSLQPEDIATYYCQQWSSNPFTFGQGTKLQITRTVAAPSVFIFPPSDEQLKSGTASVVCLLNNFYPREAKVQWKVDNALQSGNSQESVTEQDSKDSTYSLSSTLTLSKADYEKHKVYACEVTHQGLSSPVTKSFNRGEC
heavy: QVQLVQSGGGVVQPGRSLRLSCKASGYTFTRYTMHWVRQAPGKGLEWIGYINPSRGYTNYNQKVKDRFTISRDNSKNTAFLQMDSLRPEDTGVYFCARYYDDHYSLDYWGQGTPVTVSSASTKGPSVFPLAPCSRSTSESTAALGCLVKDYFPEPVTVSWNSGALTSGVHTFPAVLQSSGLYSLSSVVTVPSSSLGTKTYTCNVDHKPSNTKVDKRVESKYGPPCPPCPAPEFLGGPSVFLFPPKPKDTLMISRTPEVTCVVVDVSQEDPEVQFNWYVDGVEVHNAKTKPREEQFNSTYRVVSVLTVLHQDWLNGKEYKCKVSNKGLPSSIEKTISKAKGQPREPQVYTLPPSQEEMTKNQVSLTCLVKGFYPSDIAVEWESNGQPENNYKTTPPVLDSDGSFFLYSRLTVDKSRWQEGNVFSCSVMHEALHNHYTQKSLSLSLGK
notes: also called anti-CD3 SAFEbody

EC50 [3]: 28.8 nM | max MFI [3]: 2260 MFI | EC50 [4]: 20.7 nM | max MFI [4]: 1120 MFI
B5: TY25715 (bispecific antibody, human IgG1, kappa, N297A)
light: QIVLSQSPAILSASPGEKVTMTCRASSSVSYIHWFQQKPGKSPKPWIYATSNLASGVPVRFSGSGSGTSYSLTISRVEAEDAATYYCQQWTSNPPTFGGGTKVEIKRTVAAPSVFIFPPSDEQLKSGTASVVCLLNNFYPREAKVQWKVDNALQSGNSQESVTEQDSKDSTYSLSSTLTLSKADYEKHKVYACEVTHQGLSSPVTKSFNRGEC
heavy: EVQLVQSGAEVKKPGSSVKVSCKASGYTFTSYNMHWVRQAPGKGLEWIGAIYPGSGDTSYNQKFKGRVTITADKSTSTAYMELSSLRSEDTAVYYCARSTYYGGDWYFNVWGQGTLVTVSSASTKGPSVFPLAPSSKSTSGGTAALGCLVKDYFPEPVTVSWNSGALTSGVHTFPAVLQSSGLYSLSSVVTVPSSSLGTQTYICNVNHKPSNTKVDKKVEPKSCDKTHTCPPCPAPELLGGPSVFLFPPKPKDTLMISRTPEVTCVVVDVSHEDPEVKFNWYVDGVEVHNAKTKPREEQYASTYRVVSVLTVLHQDWLNGKEYKCKVSNKALPAPIEKTISKAKGQPREPQVYTLPPSRKKLTKNQVKLTCLVKGFYPSDIAVEWESNGQPENNYKTTPPVLDCDGSFFLYSKLTVDKSRWQQGNVFSCSVMHEALHNHYTQKSLSLSPGK
chain: EAVVTQEPSLTVSPGGTVTLTCGSSTGAVTTSNYPNWVQQKPGQAPRGLIGGTNKRAPGTPARFSGSLLGGKAALTLSGAQPEDEAEYYCALWYSDLWVFGGGTKLTVLGGGGSGGGGSGGGGSGGGGSEVQLVESGGGLVQPGGSLRLSCAASGFTFSTYAINWVRQAPGKGLEWVSRIRSKYNNYATYYAESVKDRFTISRDDSKNTLYLQINSLRAEDTAVYYCVRHGNFGTSYVSWFAYWGQGTLVTVSSEPKSSDKTHTCPPCPAPELLGGPSVFLFPPKPKDTLMISRTPEVTCVVVDVSHEDPEVKFNWYVDGVEVHNAKTKPREEQYASTYRVVSVLTVLHQDWLNGKEYKCKVSNKALPAPIEKTISKAKGQPREPQVYTDPPSRDELTKNQVSLTCLVDGFYPSDIAVEWESNGQPENCYKTTPPVLDSDGSFFLYSKLTVDKSRWQQGNVFSCSVMHEALHNHYTQDSLSLSPGK
notes: also called parental CD20xCD3 bispecific antibody of TY25716

EC50 [5]: 260 nM
B6: TY25524 (bispecific antibody, human IgG1, kappa, N297A)
light: not shown
heavy: not shown
chain: B5 chain with P35A, N54K, K55F, T60I, L97H, S178G, D197G, V228A

EC50 [6]: 37.2 nM | Max MFI [6]: 5280 MFI | EC50 [7]: 14.5 nM | max MFI [7]: 50000 MFI | EC50 [8]: 162 nM | Max MFI [8]: 647000 MFI | EC50 [9]: 13.5 nM | max MFI [9]: 28100 MFI | EC50 [10]: 14.6 nM | Max MFI [10]: 2.48e+06 MFI | EC50 [11]: 220 nM | Max MFI [11]: 967000 MFI | EC50 [12]: 28 nM | Max MFI [12]: 23500 MFI
B7: TY25716 (bispecific antibody, human IgG1, kappa, N297A)
light: B5 light
heavy: B5 heavy
chain: EVGSYPYDDPDCPSHESDCDQGGGPLGLAGGSEAVVTQEPSLTVSPGGTVTLTCGSSTGAVTTSNYPNWVQQKPGQAPRGLIGGTNKRAPGTPARFSGSLLGGKAALTLSGAQPEDEAEYYCALWYSDLWVFGGGTKLTVLGGGGSGGGGSGGGGSGGGGSEVQLVESGGGLVQPGGSLRLSCAASGFTFSTYAINWVRQAPGKGLEWVSRIRSKYNNYATYYAESVKDRFTISRDDSKNTLYLQINSLRAEDTAVYYCVRHGNFGTSYVSWFAYWGQGTLVTVSSEPKSSDKTHTCPPCPAPELLGGPSVFLFPPKPKDTLMISRTPEVTCVVVDVSHEDPEVKFNWYVDGVEVHNAKTKPREEQYASTYRVVSVLTVLHQDWLNGKEYKCKVSNKALPAPIEKTISKAKGQPREPQVYTDPPSRDELTKNQVSLTCLVDGFYPSDIAVEWESNGQPENCYKTTPPVLDSDGSFFLYSKLTVDKSRWQQGNVFSCSVMHEALHNHYTQDSLSLSPGK

EC50 (read off the curve) [2]: ~0.3 nM
B8: TAC2245 (antibody, V domains shown)
VH: QVQLVQSGGGVVQPGRSLRLSCKASGYTFTRYTMHWVRQAPGKGLEWIGYINPSRGYTNYNQKVKDRFTISRDNSKNTAFLQMDSLRPEDTGVYFCARYYDDHYSLDYWGQGTPVTVSS
VL: DIQMTQSPSSLSASVGDRVTITCSASSSVSYMNWYQQTPGKAPKRWIYDTSKLASGVPSRFSGSGSGTDYTFTISSLQPEDIATYYCQQWSSNPFTFGQGTKLQIT
notes: also called huOKT3-C114S-gLC; parental huOKT3 anti-CD3 antibody
